Target: human fibrinogen (UniProt P02671)

Substance	fibrin gel formation by primed hMSCs (confocal microscopy, Alexa-594-tagged fibrinogen)	fibrin formation, absorbance at 600 nm
[cThrombin][S]	[cThrombin][S] bound to cell membranes was able to cleave fibrinogen to form a fibrin gel	–
cationised thrombin	–	During cationisation, the activity of thrombin was retained up to 120 minutes of cationisation, although the activity was gradually decreased with increased cationisation duration

From US20210060174
